Source: patent publication US20260234255A1 (Genmab, published 2026)
Where a chain is given by its changes, count along the chain named.

Experiments:
[1] = biological target: T1, human CD30 (human, UniProt P28908 19-595); assay: flow cytometry, L-428 cells, experiment N = 1
T1 construct: The same molecule is used for CD30 on HL/ALCL/NHL cell lines; also called huCD30; TNFRSF8
T1 sequence: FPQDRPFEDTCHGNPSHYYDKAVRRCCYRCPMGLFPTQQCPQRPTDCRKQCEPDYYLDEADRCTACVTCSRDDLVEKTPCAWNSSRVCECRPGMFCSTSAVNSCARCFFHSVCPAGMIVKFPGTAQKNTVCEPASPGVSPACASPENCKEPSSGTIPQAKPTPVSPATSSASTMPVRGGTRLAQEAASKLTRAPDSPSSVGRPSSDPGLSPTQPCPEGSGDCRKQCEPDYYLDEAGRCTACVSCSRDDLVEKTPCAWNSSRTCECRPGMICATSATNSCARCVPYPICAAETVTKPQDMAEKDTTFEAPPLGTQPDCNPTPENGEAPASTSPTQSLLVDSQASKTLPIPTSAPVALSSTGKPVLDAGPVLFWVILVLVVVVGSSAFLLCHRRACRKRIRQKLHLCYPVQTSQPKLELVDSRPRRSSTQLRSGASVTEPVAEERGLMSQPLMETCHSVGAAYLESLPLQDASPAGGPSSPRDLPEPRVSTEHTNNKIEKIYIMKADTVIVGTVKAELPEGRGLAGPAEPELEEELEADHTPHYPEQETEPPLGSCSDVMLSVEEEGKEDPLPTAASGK

[2] = biological target: T1, human CD30; assay: flow cytometry, KI-JK cells, experiment N = 2
[3] = biological target: T1, human CD30; assay: cell-based or functional assay
[4] = biological target: T1, human CD30; assay: cell-based or functional assay; remark: listed apart in the source
[5] = biological target: T1, human CD30; assay: flow cytometry, DL-40 cells (ALCL), range of 3 tests
Protocol: (§1) Cells (3×10⁴ cells/well) were incubated in polystyrene 96-well round-bottom plates (Greiner bio-one, cat. no. 650180) with serial dilutions of antibodies (range 0.0046 to 10 μg/mL in 3-fold dilution steps) in 50 μL staining buffer at 4° C. for 30 min. After washing twice in staining buffer, cells were incubated with 50 μL secondary antibody at 4° C. for 30 min. […] Next, cells were washed twice in staining buffer, resuspended in 100 μL staining buffer supplemented with TO-PRO-3 iodide (Thermo Fisher Scientific; cat. no. T3605; 1:8000 dilution) and analyzed on a FACSCelesta flow cytometer (BD Biosciences, USA). Live cells were gated based on FSC/SSC and absence of TOPRO-3 staining. Binding curves were analyzed by non-linear regression of log-transformed data (sigmoidal dose-response with variable slope, four parameters) using GraphPad Prism V7.02 software (GraphPad Software, San Diego, CA, USA).

[6] = biological target: T1, human CD30; assay: flow cytometry, SUP-T1 cells (TLL), range of 2 tests
Protocol: as §1

[7] = biological target: T2, rhesus monkey (Macaca mulatta) CD30 (rhesus monkey, UniProt P28908 19-595 (human entry)); assay: flow cytometry, HEK293 cells; panel title 'HEK293 rhesus CD30'
T2 construct: also called mmCD30
T2 chain: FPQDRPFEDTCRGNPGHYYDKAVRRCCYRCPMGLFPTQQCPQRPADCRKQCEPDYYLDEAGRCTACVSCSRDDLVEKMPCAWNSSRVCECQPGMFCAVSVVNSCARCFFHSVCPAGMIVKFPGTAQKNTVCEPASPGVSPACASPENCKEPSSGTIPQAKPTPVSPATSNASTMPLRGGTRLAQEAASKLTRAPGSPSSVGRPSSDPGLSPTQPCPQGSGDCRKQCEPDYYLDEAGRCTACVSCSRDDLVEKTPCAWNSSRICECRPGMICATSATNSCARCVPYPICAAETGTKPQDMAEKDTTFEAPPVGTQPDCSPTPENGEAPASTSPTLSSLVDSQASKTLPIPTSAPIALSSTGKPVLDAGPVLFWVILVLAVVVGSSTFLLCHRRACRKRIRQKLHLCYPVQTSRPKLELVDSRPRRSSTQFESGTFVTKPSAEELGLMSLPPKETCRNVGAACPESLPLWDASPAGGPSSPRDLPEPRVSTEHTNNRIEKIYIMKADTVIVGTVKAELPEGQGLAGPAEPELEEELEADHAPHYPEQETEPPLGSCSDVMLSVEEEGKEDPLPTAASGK
Protocol: Cells (3×10⁴ cells/well) were incubated in polystyrene 96-well round-bottom plates (Thermo Scientific, cat. no. 163320) with serial dilutions of antibodies (ranging from 0.0002 to 50 μg/mL in 4-fold dilution steps) in 50 μL staining buffer at 4° C. for 30 min. Experiments were performed in technical duplicate. After washing twice in staining buffer, cells were incubated in 50 μL secondary antibody at 4° C. for 30 min. As a secondary antibody, R-PE-conjugated goat-anti-human IgG (Jackson ImmunoResearch, UK; cat. no. 109⁻¹¹⁶-098) diluted 1:200 in staining buffer was used. Cells were washed twice in staining buffer, resuspended in 30 μL staining buffer containing 0.4% EDTA and the ToPro-3 viability marker (Invitrogen, cat. no. T3605) diluted 1:10,000. Cells were analyzed on an iQue Screener (Intellicyt Corporation, USA). Binding curves were analyzed using non-linear regression (sigmoidal dose-response with variable slope) using GraphPad Prism V9.0.0 software (GraphPad Software, San Diego, CA, USA).

[8] = biological target: T1, human CD30; assay: flow cytometry, L-540 cells (HL), range of 3 tests
Protocol: as §1

[9] = biological target: T1, human CD30; assay: flow cytometry, SUP-T1 cells (TLL), average of 2 tests; SUP-T1 cells (TLL), average of 2 tests
Protocol: as §1

[10] = biological target: T1, human CD30; assay: flow cytometry, NCEB-1 cells (MCL), range of 3 tests
Protocol: as §1

[11] = biological target: T1, human CD30; assay: flow cytometry, KM-H2 cells (HL), range of 3 tests
Protocol: as §1

[12] = biological target: T1, human CD30; assay: flow cytometry, SR-786 cells (ALCL), average of 3 tests
Protocol: as §1

B1: bsG1-huCD3-FEALxCD30-MDX060-FEAR (bispecific antibody, human IgG1, kappa, lambda)
heavy 1: not shown
light 1: not shown
heavy 2: QVQLQQWGAGLLKPSETLSLTCAVYGGSFSAYYWSWIRQPPGKGLEWIGDINHGGGTNYNPSLKSRVTISVDTSKNQFSLKLNSVTAADTAVYYCASLTAYWGQGSLVTVSSASTKGPSVFPLAPSSKSTSGGTAALGCLVKDYFPEPVTVSWNSGALTSGVHTFPAVLQSSGLYSLSSVVTVPSSSLGTQTYICNVNHKPSNTKVDKRVEPKSCDKTHTCPPCPAPEFEGGPSVFLFPPKPKDTLMISRTPEVTCVVVAVSHEDPEVKFNWYVDGVEVHNAKTKPREEQYNSTYRVVSVLTVLHQDWLNGKEYKCKVSNKALPAPIEKTISKAKGQPREPQVYTLPPSREEMTKNQVSLTCLVKGFYPSDIAVEWESNGQPENNYKTTPPVLDSDGSFFLYSRLTVDKSRWQQGNVFSCSVMHEALHNHYTQKSLSLSPG
light 2: DIQMTQSPTSLSASVGDRVTITCRASQGISSWLTWYQQKPEKAPKSLIYAASSLQSGVPSRFSGSGSGTDFTLTISSLQPEDFATYYCQQYDSYPITFGQGTRLEIKRTVAAPSVFIFPPSDEQLKSGTASVVCLLNNFYPREAKVQWKVDNALQSGNSQESVTEQDSKDSTYSLSSTLTLSKADYEKHKVYACEVTHQGLSSPVTKSFNRGEC
notes: also called bsG1-huCD3xCD30-MDX060
EC50 [1]: 0.154 µg/mL
EC50 [2]: 0.0735 µg/mL
T-cell mediated cytotoxicity of Karpas-299 cells, IC50 average [3]: 0.033 µg/mL
T-cell mediated cytotoxicity of Karpas-299 cells, maximum lysis average [3]: 53.7%

B2: bsG1-huCD3-FEALxCD30-MDX060-FERR (bispecific antibody, human IgG1, kappa, lambda)
heavy 1: not shown
light 1: not shown
heavy 2: B1 heavy 2 with G231R, A260D
light 2: B1 light 2
notes: Bispecific IgG1 made by controlled Fab-arm exchange; also called bsIgG1-huCD3-FEALxCD30-MDX060-FERR; bsG1-huCD3×CD30-MDX060
T-cell mediated cytotoxicity of KI-JK cells, average IC50 [4]: 0.0015 µg/mL
T-cell mediated cytotoxicity of L-428 cells, average IC50 [4]: 0.002 µg/mL
EC50 [5]: 0.17 to 0.347 µg/mL
EC50 [6]: 0.257 to 0.434 µg/mL
EC50 (read off the curve) [7]: ~0.07 µg/mL
EC50 [8]: 0.202 to 0.469 µg/mL
EC50 [9]: 0.346 µg/mL
EC50 [10]: 0.118 to 0.2 µg/mL
EC50 [11]: 0.141 to 0.182 µg/mL
EC50 [12]: 0.328 µg/mL
T-cell mediated cytotoxicity of Karpas-299 cells, IC50 average [3]: 0.029 µg/mL
T-cell mediated cytotoxicity of Karpas-299 cells, maximum lysis average [3]: 52.3%
